A word on the stoichiometry N: it is a count of units in the complex or per binding partner.

This is an account of results in publication PMC5201417, “Drosophila non-muscle myosin II motor activity determines the rate of tissue folding” (eLife, 2016).

Assay [1] addresses Drosophila non-muscle myosin II heavy chain, HMM construct (amino acids 1-1363) (Drosophila melanogaster) (UniProt Q99323). Nature of the assay: co-purification (Flag affinity chromatography, stained SDS gel); heavy chain and both light chains co-expressed in Sf9 cells, purified via Flag affinity chromatography (HMM also by size exclusion chromatography); PageBlue-stained 4-12% Bis-Tris gel.

Assay [2] has as its target Drosophila non-muscle myosin II heavy chain, full length (amino acids 1-1971) (Drosophila melanogaster) (UniProt Q99323). The description is as above.
The target in assay [3] is filamentous actin from rabbit skeletal muscle (rabbit) (UniProt P68135).
Assay [4] deals with T1, Drosophila non-muscle myosin II heavy chain, HMM construct (amino acids 1-1363) (Drosophila melanogaster, UniProt Q99323-2 1-1363).
T1 construct: numbers count on: NP_001014553.1; the heavy chain alone, for the rows of heavy chain with each light chain; whether it carries the Halo tag is not clear; also called HMM (160 kDa); myosin heavy chain
Nature of the assay: co-purification (Flag affinity chromatography, stained SDS gel); heavy chain and both light chains co-expressed in Sf9 cells, purified via Flag affinity chromatography (HMM also by size exclusion chromatography); PageBlue-stained 4-12% Bis-Tris gel. The following applies: partners not purified.

The target in assay [5] is T2, Drosophila non-muscle myosin II heavy chain, full length (amino acids 1-1971) (Drosophila melanogaster, UniProt Q99323-2 1-1971).
T2 construct: the heavy chain alone, for the rows of heavy chain with each light chain; also called full-length (228 kDa); myosin heavy chain
The description is as above. The following applies: partners not purified.

Sequence of Drosophila non-muscle myosin II heavy chain, full length (amino acids 1-1971) (Drosophila melanogaster) (Q99323 other isoform, or with tags, fused parts or gaps): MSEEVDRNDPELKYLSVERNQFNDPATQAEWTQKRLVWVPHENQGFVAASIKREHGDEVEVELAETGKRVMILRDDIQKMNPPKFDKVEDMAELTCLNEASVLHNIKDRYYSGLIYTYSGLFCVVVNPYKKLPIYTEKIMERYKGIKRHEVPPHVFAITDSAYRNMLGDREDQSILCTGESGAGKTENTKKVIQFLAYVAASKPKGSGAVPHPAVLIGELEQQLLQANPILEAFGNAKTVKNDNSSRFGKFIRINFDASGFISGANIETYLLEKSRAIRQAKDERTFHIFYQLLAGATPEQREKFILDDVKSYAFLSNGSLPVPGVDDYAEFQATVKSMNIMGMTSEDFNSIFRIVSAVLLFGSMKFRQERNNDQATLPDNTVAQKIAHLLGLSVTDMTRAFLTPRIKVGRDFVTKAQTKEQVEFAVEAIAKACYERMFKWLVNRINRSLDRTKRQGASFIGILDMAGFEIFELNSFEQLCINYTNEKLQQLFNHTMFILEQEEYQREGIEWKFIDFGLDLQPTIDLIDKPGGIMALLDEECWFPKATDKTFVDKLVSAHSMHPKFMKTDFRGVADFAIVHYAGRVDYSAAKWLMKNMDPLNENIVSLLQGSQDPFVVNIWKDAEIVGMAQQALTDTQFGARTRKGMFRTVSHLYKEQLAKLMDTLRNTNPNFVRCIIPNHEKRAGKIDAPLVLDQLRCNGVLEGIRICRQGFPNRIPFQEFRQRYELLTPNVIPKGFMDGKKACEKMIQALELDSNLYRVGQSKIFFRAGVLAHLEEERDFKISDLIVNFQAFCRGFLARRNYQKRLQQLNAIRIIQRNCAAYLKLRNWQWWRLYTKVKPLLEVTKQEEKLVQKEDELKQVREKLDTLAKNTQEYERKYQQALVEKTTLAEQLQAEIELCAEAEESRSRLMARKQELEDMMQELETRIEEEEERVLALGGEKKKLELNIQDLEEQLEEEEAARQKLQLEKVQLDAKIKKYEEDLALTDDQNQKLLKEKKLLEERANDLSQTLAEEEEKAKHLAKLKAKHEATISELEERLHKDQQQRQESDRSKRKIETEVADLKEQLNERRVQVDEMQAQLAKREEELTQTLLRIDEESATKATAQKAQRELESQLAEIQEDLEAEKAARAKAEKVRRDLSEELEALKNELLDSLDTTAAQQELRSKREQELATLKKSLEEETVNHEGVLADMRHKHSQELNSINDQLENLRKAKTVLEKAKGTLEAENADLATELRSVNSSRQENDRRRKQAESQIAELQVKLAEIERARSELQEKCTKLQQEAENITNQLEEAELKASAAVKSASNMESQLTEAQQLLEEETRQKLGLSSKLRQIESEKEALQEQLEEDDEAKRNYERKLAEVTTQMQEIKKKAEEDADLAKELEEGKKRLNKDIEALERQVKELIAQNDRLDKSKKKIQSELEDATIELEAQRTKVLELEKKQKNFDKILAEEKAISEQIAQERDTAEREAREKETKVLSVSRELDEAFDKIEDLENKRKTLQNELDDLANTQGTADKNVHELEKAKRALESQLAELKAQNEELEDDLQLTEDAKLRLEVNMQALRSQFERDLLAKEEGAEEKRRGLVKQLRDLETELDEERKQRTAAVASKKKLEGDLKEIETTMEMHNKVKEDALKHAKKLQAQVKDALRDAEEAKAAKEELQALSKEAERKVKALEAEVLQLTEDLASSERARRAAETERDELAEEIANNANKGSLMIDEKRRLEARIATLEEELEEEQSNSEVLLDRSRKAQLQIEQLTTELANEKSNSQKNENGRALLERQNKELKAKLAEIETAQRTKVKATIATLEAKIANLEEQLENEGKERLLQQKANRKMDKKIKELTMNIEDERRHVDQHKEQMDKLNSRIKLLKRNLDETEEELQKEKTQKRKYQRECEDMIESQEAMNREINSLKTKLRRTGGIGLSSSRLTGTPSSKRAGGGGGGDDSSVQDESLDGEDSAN
Sequence of Drosophila non-muscle myosin II heavy chain, HMM construct (amino acids 1-1363) (Drosophila melanogaster) (Q99323 other isoform, or with tags, fused parts or gaps): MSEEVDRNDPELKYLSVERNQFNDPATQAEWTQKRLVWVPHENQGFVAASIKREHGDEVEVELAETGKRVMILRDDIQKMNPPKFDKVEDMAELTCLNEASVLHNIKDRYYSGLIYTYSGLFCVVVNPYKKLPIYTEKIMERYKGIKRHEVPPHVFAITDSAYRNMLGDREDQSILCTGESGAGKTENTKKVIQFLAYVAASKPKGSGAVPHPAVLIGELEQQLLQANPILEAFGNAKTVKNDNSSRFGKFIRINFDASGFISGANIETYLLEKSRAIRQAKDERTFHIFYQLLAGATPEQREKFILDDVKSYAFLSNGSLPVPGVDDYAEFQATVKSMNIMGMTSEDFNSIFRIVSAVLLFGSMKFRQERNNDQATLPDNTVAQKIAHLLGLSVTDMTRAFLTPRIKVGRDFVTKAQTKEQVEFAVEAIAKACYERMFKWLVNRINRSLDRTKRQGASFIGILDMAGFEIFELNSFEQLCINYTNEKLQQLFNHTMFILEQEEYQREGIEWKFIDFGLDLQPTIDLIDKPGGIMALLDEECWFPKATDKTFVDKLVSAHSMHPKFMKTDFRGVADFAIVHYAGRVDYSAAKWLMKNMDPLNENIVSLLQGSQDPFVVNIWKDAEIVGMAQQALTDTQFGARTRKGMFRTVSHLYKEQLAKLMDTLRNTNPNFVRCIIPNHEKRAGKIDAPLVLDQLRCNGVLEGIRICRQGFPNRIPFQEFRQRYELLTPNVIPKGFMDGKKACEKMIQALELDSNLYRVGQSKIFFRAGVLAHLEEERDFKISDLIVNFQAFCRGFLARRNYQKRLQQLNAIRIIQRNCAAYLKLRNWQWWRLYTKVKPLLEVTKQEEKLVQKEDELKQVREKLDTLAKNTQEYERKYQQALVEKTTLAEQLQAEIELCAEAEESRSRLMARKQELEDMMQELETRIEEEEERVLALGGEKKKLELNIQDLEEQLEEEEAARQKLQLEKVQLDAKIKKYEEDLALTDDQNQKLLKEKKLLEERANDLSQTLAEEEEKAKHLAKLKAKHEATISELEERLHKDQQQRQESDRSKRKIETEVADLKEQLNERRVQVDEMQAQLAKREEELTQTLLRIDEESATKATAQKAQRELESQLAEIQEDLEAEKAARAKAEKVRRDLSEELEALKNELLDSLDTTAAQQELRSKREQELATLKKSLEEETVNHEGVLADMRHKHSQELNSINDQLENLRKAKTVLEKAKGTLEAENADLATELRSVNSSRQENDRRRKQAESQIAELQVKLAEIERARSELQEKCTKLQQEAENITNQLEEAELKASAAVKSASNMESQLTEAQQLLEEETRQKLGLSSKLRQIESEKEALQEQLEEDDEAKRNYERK

Turning to “Drosophila myosin regulatory light chain (Sqh), mutant RLC-AA (natural protein)”, the stoichiometry N in assay [1] and in assay [2] was 1 each time.

With “Drosophila myosin regulatory light chain (Sqh), mutant RLC-AE (natural protein)”, the stoichiometry N in assay [1] and in assay [2] was 1 in each case.

As for “Drosophila myosin regulatory light chain (Sqh), mutant RLC-AS (natural protein)”, the stoichiometry N in assay [1] and in assay [2] was 1 each time.

With “Drosophila myosin regulatory light chain (Sqh), mutant RLC-EE (natural protein)”, the stoichiometry N in assay [1] and in assay [2] was 1 each time.

Turning to “Drosophila myosin regulatory light chain (Sqh), mutant RLC-TA (natural protein)”, the stoichiometry N in assay [1] and in assay [2] was 1 in each case.

With “Drosophila non-muscle myosin II heavy meromyosin (HMM) with wild-type RLC, phosphorylated by MLCK (from UniProt Q99323-2 1-1363; P40423 1-174; P54357 1-147) (complex)”, the Kapp (apparent actin affinity) of the actin-activated steady-state ATPase, NADH-linked assay at 25°C, 0-100 µM filamentous actin, Michaelis-Menten fit in assay [3] came to 38.9 µM.

B1: Drosophila myosin essential light chain (Mlc-c) (natural protein, Drosophila melanogaster, UniProt P54357 1-147, looked up)
light: MAAYTEDQLAEFQEAFNLFDNRGDGKIQLSQVGECLRALGQNPTESDVKKCTHQLKPDERISFEVFLPIYQAISKARSGDTADDFIEGLRHFDKDASGYISSAELRHLLTTLGEKLTDEEVEQLLANMEDQQGNINYEEFVRMVMSG
notes: Drosophila myosin essential light chain Mlc-c; 16 kDa on the gel; also called ELC; source: Sf9 insect cells (baculovirus, polycistronic vector with Sqh), co-expressed and co-purified with the heavy chain
B1: the “stoichiometry N” value in assay [4] and in assay [5] was 1 in each case.

B2: Drosophila myosin regulatory light chain (Sqh), wild type (natural protein, Drosophila melanogaster, UniProt P40423 1-174, looked up)
light: MSSRKTAGRRATTKKRAQRATSNVFAMFDQAQIAEFKEAFNMIDQNRDGFVEKEDLHDMLASLGKNPTDDYLDGMMNEAPGPINFTMFLTLFGERLQGTDPEDVIKNAFGCFDEENMGVLPEDRLRELLTTMGDRFTDEDVDEMYREAPIKNGLFDYLEFTRILKHGAKDKDEQ
notes: Drosophila myosin regulatory light chain Sqh (spaghetti squash); 19 kDa on the gel; also called RLC; RLC-TS; source: Sf9 insect cells (baculovirus, polycistronic vector with Mlc-c), co-expressed and co-purified with the heavy chain
As to B2, the “stoichiometry N” value in assay [4] and in assay [5] was 1 throughout.
